Results as given in article PMC9549148, “Validation of the binding stoichiometry between HCN channels and their neuronal regulator TRIP8b by single molecule measurements” (Frontiers in Physiology, 2022).

How the values were obtained:
[1] = molecular target: rabbit HCN4 carrying an internal deletion (from residues 783 to 1064) (rabbit) (UniProt Q9TV66); experiment: mass photometry; Refeyn OneMP; SEC peak fractions of the co-purified HCN4 - EGFP-TRIP8b complex in LMNG-CHS, 1 μL at 200 nM added to 10 μL buffer at room temperature, 60 s recording; no cAMP
[2] = molecular target: the molecule itself; experiment: mass photometry; Refeyn OneMP; the same co-purified HCN4 - EGFP-TRIP8b complex with 2 mM cAMP added prior to mass photometry

| stoichiometry N (TRIP8b per tetrameric HCN4) [1] | Molecule | stoichiometry N [2] |
| --- | --- | --- |
| 4 | EGFP-tagged TRIP8b (1a), full-length mouse TRIP8b (splice variant 1a4) (from UniProt Q8C437 1-567) (natural protein) | – |
| – | rabbit HCN4 carrying an internal deletion (from residues 783 to 1064) (natural protein, UniProt Q9TV66 1-1175, looked up, the extreme C-terminal SNL tripeptide is preserved; expected MW of the monomer 98.4 kDa; Cloned into the pCI vector; no tag is stated for HCN4; also called HCN4ΔC; modified HCN4 channels; source: HEK293-F, transiently co-transfected with TRIP8b; solubilised in detergent (LMNG-CHS), purified in complex with TRIP8b (Ni2+-NTA, Superose 6 SEC)) MDKLPPSMRKRLYSLPQQVGAKAWIMDEEEDAEEEGAGGRQDPRRRSIRLRPLPSPSPSPSAAAAAAGGAESRGAALGGAADGEGPARGAAKSSTNGDCRRFRGSLASLGSRGGGGGGGSTGGGSHGHLHDSAEERRLIAEGDASPGEDRTPPGLAAEPERPGAPAPPAASPPQVPSSCGEQRPADAAVKVEGGAAAGDQILPEAEARLGQAGFMQRQFGAMLQPGVNKFSLRMFGSQKAVEREQERVKSAGFWIIHPYSDFRFYWDLTMLLLMVGNLIIIPVGITFFKDENTTPWIVFNVVSDTFFLIDLVLNFRTGIVVEDNTDIILDPRRIKMKYLKSWFVVDFVSSIPVDYIFLIVETRIDSEVYKTARALRIVRFTKILSLLRLLRLSRLIRYIHQWEEIFHMTYDLASAVVRIVNLIGMMLLLCHWDGCLQFLVPMLQDFPDDCWVSLNNMVNNSWGKQYSYALFKAMSHMLCIGYGRQAPMGMSDVWLTMLSMIVGATCYAMFIGHATALIQSLDSSRRQYQEKYKQVEQYMSFHKLPPDTRQRIHDYYEHRYQGKMFDEESILGELSEPLREEIINFNCRKLVASMPLFANADPNFVTSMLTKLRFEVFQPGDYIIREGTIGKKMYFIQHGVVSVLTKGNKETKLADGSYFGEICLLTRGRRTASVRADTYCRLYSLSVDNFNEVLEEYPMMRRAFETVALDRLDRIGKKNSILLHKVQHDLSSGVSNYQENAIVQRIVQHDREMAHCARRAQATTPVAPAIWTPLIQAPLQAAQDLKLISASQPALPQDGAQTLRRASPHSSSGESVAALPPFPRAPGRPPGAGPGQHVTLTLPRKASSGSLPPPLSLFGPRAAPAGGPRLTAAPQREPGAKSEPVRSKLPSNL | 4 |
